From paper PMC3864023

Experiments:
ParC R564D;ParE = ParC R564D;ParE (Escherichia coli;Escherichia coli, UniProt P0AFI2;P20083 1-752;1-630, R564D|); assay: fluorescence anisotropy
ParC WT;ParE = ParC WT;ParE (Escherichia coli;Escherichia coli, UniProt P0AFI2;P20083 1-752;1-630, |); assay: fluorescence anisotropy

B1: 45mer duplex with strong topo II site, FAM (dsDNA)
DNA 1: GCCTATCCGAGGATGACGATGCGCGCATCGTCATACAGCGAATGG
DNA 2: CCATTCGCTGTATGACGATGCGCGCATCGTCATCCTCGGATAGGC
ParC R564D;ParE
  Kd: 15 3
ParC WT;ParE
  Kd: 25 5
